Measurements reported in article PMC5150261.

Key:
[1] = molecular target: VHR (as used in the GST pull-down) (not stated (human or mouse cDNA cloned)) (UniProt P51452)
[2] = molecular target: VHR (as used in the GST pull-down) (not stated (human or mouse cDNA cloned)) (UniProt P51452); remark: listed apart in the source

Chain of UniProt P51452 (P51452 whole entry): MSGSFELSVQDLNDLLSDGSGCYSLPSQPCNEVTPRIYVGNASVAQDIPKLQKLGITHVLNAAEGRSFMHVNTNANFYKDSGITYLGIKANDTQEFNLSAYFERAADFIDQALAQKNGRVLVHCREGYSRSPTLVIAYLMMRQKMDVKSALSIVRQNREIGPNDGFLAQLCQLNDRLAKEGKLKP

GST-tagged full-length HSP70 (from UniProt P0DMV8 1-641) (natural protein)
in vitro VHR phosphatase activity with purified recombinant p-ERK2 as substrate (1 μg GST-VHR with 2 μg His-HSP70, against VHR alone) [1]: 2 fold
in vitro VHR phosphatase activity with pNPP as substrate (5 μg GST-VHR with 10 μg His-HSP70, against VHR alone) [2]: 2 fold
